Experimental data from publication PMC11420629 (2024).

Target: T1, GluR1 carboxy‐terminal region (SPR)
T1 chain: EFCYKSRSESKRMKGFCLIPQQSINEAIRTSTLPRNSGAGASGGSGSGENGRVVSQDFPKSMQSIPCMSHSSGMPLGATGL
Experiment: SPR

B1: full‐length CIRP protein (SPR) (natural protein)
chain: MASDEGKLFVGGLSFDTNEQALEQVFSKYGQISEVVVVKDRETQRSRGFGFVTFENIDDAKDAMMAMNGKSVDGRQIRVDQAGKSSDNRSRGYRGGSAGGRGFFRGGRSRGRGFSRGGGDRGYGGGRFESRSGGYGGSRDYYASRSQGGSYGYRSSGGSYRDSYDSYATHNE
Kd: 1010 nM
